Laboratory results as given in patent US20240116985A1 (published 2024).
Starred links: 1 amine or outer side, 2 acyl side, 3 side chain; linkers in the order of their positions; H or OH if unused. Positions of bridges follow the written chain, without caps; N, C: chain ends. Non-standard residues stand in square brackets, D forms with d. Primed or numbered codes have the meaning given here. B5(32) = 2-amino-2-(pent-4-en-1-yl)hept-6-enoic acid (bis-4-pentenylglycine, two alkene side chains), C=CCCCC(CCCC=C)(N[*:1])C(=O)[*:2]; B5(4) = 2,2-bis(4-pentenyl)glycine = 2-amino-2-(pent-4-en-1-yl)hept-6-enoic acid (stitching residue), C=CCCCC(CCCC=C)(N[*:1])C(=O)[*:2]; PyrS2 = (S)-3-amino-1-((pent-4-en-1-yloxy)carbonyl)pyrrolidine-3-carboxylic acid, C=CCCCOC(=O)N1CC[C@@](N[*:1])(C(=O)[*:2])C1; B5(19) = 2-amino-2-(pent-4-en-1-yl)hept-6-enoic acid (bis(4-pentenyl)glycine), C=CCCCC(CCCC=C)(N[*:1])C(=O)[*:2]; 3Br4FF = (S)-2-amino-3-(3-bromo-4-fluorophenyl)propanoic acid, O=C([C@H](Cc1ccc(F)c(Br)c1)N[*:1])[*:2]; 7F1NapA = 3-(7-fluoronaphthalen-1-yl)-L-alanine, O=C([C@H](Cc1cccc2ccc(F)cc12)N[*:1])[*:2]; B5(28) = 2,2-bis(4-pentenyl)glycine, C=CCCCC(CCCC=C)(N[*:1])C(=O)[*:2]; Phe(3-CF3) = N[C@@H](Cc1cccc(C(F)(F)F)c1)C(=O)O; Phe(3-COOH) = N[C@@H](Cc1cccc(C(=O)O)c1)C(=O)O; Phe(2-CF3) = N[C@@H](Cc1ccccc1C(F)(F)F)C(=O)O; Phe(3,4-Me2) = Cc1ccc(C[C@H](N)C(=O)O)cc1C; Phe(3-F) = N[C@@H](Cc1cccc(F)c1)C(=O)O; Bta = N[C@@H](Cc1csc2ccccc12)C(=O)O; αAllylPro = C=CC[C@@]1(C(=O)O)CCCN1; tBuAla = CC(C)(C)C[C@H](N)C(=O)O; 3Thi = N[C@@H](Cc1ccsc1)C(=O)O; S8 = C=CCCCCCC[C@](C)(N)C(=O)O

T1: B-cat-Halo (UniProt P35222 1-781)
T1 sequence (looked up): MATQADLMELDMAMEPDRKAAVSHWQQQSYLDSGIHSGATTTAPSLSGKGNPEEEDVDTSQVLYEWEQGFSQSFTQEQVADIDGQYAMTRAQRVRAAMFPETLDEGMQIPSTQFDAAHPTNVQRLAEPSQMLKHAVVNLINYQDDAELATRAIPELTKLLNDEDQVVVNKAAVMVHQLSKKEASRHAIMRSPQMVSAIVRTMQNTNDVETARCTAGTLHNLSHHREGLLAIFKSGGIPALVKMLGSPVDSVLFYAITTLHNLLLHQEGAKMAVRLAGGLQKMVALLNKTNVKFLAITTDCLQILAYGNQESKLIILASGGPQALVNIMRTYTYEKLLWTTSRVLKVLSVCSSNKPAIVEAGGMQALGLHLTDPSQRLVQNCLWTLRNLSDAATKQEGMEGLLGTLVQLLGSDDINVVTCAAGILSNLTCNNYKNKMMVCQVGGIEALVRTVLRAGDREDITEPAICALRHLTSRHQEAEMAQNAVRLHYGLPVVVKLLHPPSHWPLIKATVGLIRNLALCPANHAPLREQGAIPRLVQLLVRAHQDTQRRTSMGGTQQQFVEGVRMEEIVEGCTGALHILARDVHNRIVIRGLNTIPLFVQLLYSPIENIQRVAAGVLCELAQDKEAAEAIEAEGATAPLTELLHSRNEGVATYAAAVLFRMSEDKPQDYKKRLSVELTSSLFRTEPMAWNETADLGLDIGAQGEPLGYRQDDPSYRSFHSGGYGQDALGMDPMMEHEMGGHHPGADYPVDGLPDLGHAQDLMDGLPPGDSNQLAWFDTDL

T2: full-length beta-Catenin (Uniprot ID P35222) (Homo sapiens (Human), UniProt P35222 1-781)
T2 construct: also called bCat; B-Catenin
T2 sequence: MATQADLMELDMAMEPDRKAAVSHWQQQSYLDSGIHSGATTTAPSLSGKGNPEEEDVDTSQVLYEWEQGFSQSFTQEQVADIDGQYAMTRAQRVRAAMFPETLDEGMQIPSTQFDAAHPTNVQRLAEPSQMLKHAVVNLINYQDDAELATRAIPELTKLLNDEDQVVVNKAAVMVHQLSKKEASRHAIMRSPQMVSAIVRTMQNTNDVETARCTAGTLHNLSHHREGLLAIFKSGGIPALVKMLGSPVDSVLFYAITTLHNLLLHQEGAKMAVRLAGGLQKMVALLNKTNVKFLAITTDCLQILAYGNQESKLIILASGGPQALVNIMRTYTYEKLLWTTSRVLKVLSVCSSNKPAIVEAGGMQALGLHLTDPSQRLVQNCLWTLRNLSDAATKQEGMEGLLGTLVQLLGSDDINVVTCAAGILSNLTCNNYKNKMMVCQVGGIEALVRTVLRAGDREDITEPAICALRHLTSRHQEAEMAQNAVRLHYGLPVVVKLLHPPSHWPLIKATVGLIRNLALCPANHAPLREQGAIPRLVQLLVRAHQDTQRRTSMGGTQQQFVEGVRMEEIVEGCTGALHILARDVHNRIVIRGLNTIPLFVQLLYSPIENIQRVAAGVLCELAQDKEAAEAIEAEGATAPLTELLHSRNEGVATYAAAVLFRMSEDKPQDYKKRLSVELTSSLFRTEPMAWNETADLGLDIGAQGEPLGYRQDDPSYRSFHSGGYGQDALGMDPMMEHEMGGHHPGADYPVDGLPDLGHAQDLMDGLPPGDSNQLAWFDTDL

B1: I-2278 (peptide)
peptide: Ac-[αAllylPro]D[tBuAla][B5(32)]D[Phe(3-COOH)]AAFL[PyrS2][3Thi][Bta]NALL-NH2
modifications: staple 1-4, 4-11; also: later eluting staple isomer
B2: I-2282 (peptide)
peptide: Ac-[αAllylPro]D[tBuAla][B5(4)]D[Phe(3-COOH)]AAFL[PyrS2][3Thi][Bta]NALALA-NH2
modifications: staple 1-4, 4-11; also: later eluting staple isomer
B3: I-2284 (peptide)
peptide: Ac-[αAllylPro]D[tBuAla][B5(4)]D[Phe(3-COOH)]AAFL[PyrS2][3Thi][Bta]NALALALA-NH2
modifications: staple 1-4, 4-11; also: later eluting staple isomer
B4: I-2277 (peptide)
peptide: Ac-[αAllylPro]D[tBuAla][B5(32)]D[Phe(3-COOH)]AAFL[PyrS2][3Thi][Bta]NALL-NH2
modifications: staple 1-4, 4-11; also: earlier eluting staple isomer
B5: I-2281 (peptide)
peptide: Ac-[αAllylPro]D[tBuAla][B5(4)]D[Phe(3-COOH)]AAFL[PyrS2][3Thi][Bta]NALALA-NH2
modifications: staple 1-4, 4-11; also: earlier eluting staple isomer
B6: I-2293 (peptide)
peptide: Ac-[αAllylPro]D[tBuAla][B5(4)]D[Phe(3-COOH)]AAFL[PyrS2][Phe(2-CF3)][Phe(3,4-Me2)]S-NH2
modifications: staple 1-4, 4-11
B7: I-2279 (peptide)
peptide: Ac-[αAllylPro]D[tBuAla][B5(32)]D[Phe(3-COOH)]AAFL[PyrS2][3Thi][Bta]NLLLLL-NH2
modifications: staple 1-4, 4-11; also: earlier eluting staple isomer
B8: I-2292 (peptide)
peptide: Ac-[αAllylPro]D[tBuAla][B5(28)]D[Phe(3-COOH)]QAFV[PyrS2][3Thi][34MeF]A-NH2
modifications: staple 1-4, 4-11
B9: I-2287 (peptide)
peptide: Ac-[αAllylPro]D[tBuAla][B5(4)]D[Phe(3-COOH)]AAFL[PyrS2][3Thi][3Br4FF]Q-NH2
modifications: staple 1-4, 4-11
B10: I-2283 (peptide)
peptide: Ac-[αAllylPro]D[tBuAla][B5(4)]D[Phe(3-COOH)]AAFL[PyrS2][3Thi][Bta]NALALALA-NH2
modifications: staple 1-4, 4-11; also: earlier eluting staple isomer
B11: I-2290 (peptide)
peptide: Ac-[αAllylPro]D[tBuAla][B5(4)]D[Phe(3-COOH)]QAFL[PyrS2][Phe(2-CF3)][3Br4FF]A-NH2
modifications: staple 1-4, 4-11
B12: I-2291 (peptide)
peptide: Ac-[αAllylPro]D[tBuAla][B5(4)]D[Phe(3-COOH)]AAFL[PyrS2][3Thi][Phe(3,4-Me2)]Q-NH2
modifications: staple 1-4, 4-11
B13: I-2288 (peptide)
peptide: Ac-[αAllylPro]D[tBuAla][B5(4)]D[Phe(3-COOH)]QAFV[PyrS2][3Thi][3Br4FF]A-NH2
modifications: staple 1-4, 4-11
B14: I-2289 (peptide)
peptide: Ac-[αAllylPro]D[tBuAla][B5(4)]D[Phe(3-COOH)]AAFL[PyrS2][Phe(2-CF3)][3Br4FF]S-NH2
modifications: staple 1-4, 4-11
B15: I-368 (peptide)
peptide: Ac-[αAllylPro]DA[B5(19)]DDAAFV[S8]F[7F1NapA]Q-NH2
modifications: staple 1-4, 4-11
notes: Stapled peptide composition (olefin metathesis)
B16: I-364 (peptide)
peptide: Ac-[αAllylPro]DA[B5(19)]DDAAHA[S8]F[Bta]Q-NH2
modifications: staple 1-4, 4-11; also: later eluting HPLC staple isomer
notes: Stapled peptide
B17: I-377 (peptide)
peptide: Ac-[αAllylPro]DA[B5(4)]DDAA[Phe(3-CF3)]A[S8]F[Bta]Q-NH2
modifications: staple 1-4, 4-11; not fully specified; printed as Ac-PL3-Asp-Ala-B5-Asp-Asp-Ala-Ala-3F3MeF-Ala-S8-Phe-BztA-Gln-NH2
notes: Stapled peptide
B18: I-362 (peptide)
peptide: Ac-[αAllylPro]DA[B5(19)]DDAAFA[S8]H[Bta]Q-NH2
modifications: staple 1-4, 4-11
notes: as for B15
B19: I-372 (peptide)
peptide: Ac-[αAllylPro]DA[B5(4)]DEAAFA[S8][Phe(3-F)][Bta]Q-NH2
modifications: staple 1-4, 4-11
notes: as for B15
B20: I-376 (peptide)
peptide: Ac-[αAllylPro]DA[B5(4)]DDAA[Phe(3-CF3)]A[S8]F[Bta]Q-NH2
modifications: staple 1-4, 4-11; not fully specified; printed as Ac-PL3-Asp-Ala-B5-Asp-Asp-Ala-Ala-3F3MeF-Ala-S8-Phe-BztA-Gln-NH2
notes: Stapled peptide
B21: I-371 (peptide)
peptide: Ac-[αAllylPro]DA[B5(19)]DDAAFA[S8][Phe(3-F)][Bta]Q-NH2
modifications: staple 1-4, 4-11
notes: as for B15
B22: I-374 (peptide)
peptide: Ac-[αAllylPro]DA[B5(4)]DDAA[Phe(3-CF3)]A[S8]F[Bta]Q-NH2
modifications: staple 1-4, 4-11; not fully specified; printed as Ac-PL3-Asp-Ala-B5-Asp-Asp-Ala-Ala-3F3MeF-Ala-S8-Phe-BztA-Gln-NH2
notes: Stapled peptide
B23: I-375 (peptide)
peptide: Ac-[αAllylPro]DA[B5(4)]DDAA[Phe(3-CF3)]A[S8]F[Bta]Q-NH2
modifications: staple 1-4, 4-11; not fully specified; printed as Ac-PL3-Asp-Ala-B5-Asp-Asp-Ala-Ala-3F3MeF-Ala-S8-Phe-BztA-Gln-NH2
notes: Stapled peptide
B24: I-363 (peptide)
peptide: Ac-[αAllylPro]DA[B5(19)]DDAAHA[S8]F[Bta]Q-NH2
modifications: staple 1-4, 4-11; also: earlier eluting HPLC staple isomer
notes: Stapled peptide

What follows are binders tested against T1, B-cat-Halo (assay: cell-based or functional assay).

B1 and B2 are within 1.5-fold of each other in “NanoBRET Abs IC50” value: 2.8 µM for the first, 3.7 µM for the second.

Going from B3 to B4, the “NanoBRET Abs IC50” value falls from 12.9 µM to 2.3 µM (5.6-fold).

B5 and B6 are within 1.5-fold of each other in “NanoBRET Abs IC50” value: 4.3 µM for the first, 5.7 µM for the second.

First: B7
Second: B8
The “NanoBRET Abs IC50” value of the first is higher: > 20 µM for the first, 2.7 µM for the second.

Going from B9 to B10, the “NanoBRET Abs IC50” value falls from 7.1 µM to 4.5 µM (1.6-fold).

First: B11
Second: B12
The “NanoBRET Abs IC50” value of the first is 1.6-fold higher: 7.9 µM for the first, 4.9 µM for the second.

B13 and B14 are within 1.5-fold of each other in “NanoBRET Abs IC50” value: 6.7 µM for the first, 9 µM for the second.

Each binder was assayed against T2, full-length beta-Catenin (Uniprot ID …) (assay: fluorescence polarization competition; 10 nM full-length beta-catenin, competitor 10 nM 5FAM-TCF4(10-53)).
Procedure: The plate was incubated protected from light for 60 minutes at 20° C. prior to read. Reads were performed on a CLARIOstar plate reader (BMG Labtech) in duplicate, and data were fitted to a 1:1 binding model with hill slope using an in-house script. All provided concentrations are final concentrations.

B15 and B16 are the same in EC50: 5 µM for the first, 5 µM for the second.

Compared with B17, B18 is 2.8-fold higher in EC50: 1.32 µM for the first, 3.66 µM for the second.

Going from B19 to B20, the EC50 falls from 2.09 µM to 1.32 µM (1.6-fold). The second is the more potent here.

Going from B21 to B22, the EC50 rises from 1.39 µM to 3.01 µM (2.2-fold).

First: B23
Second: B24
The EC50 of the first is 1.7-fold lower: 3.01 µM for the first, 5 µM for the second. The first is the more potent here.
